Measured values as given in the supplement of paper PMC9170038.

How the values were obtained:
[1] = test system: MS2 coat protein; experiment: apparent KD of MS2 coat protein, switch ON state; designed switch direction (-1 OFF switch, 1 ON switch): -1; higher = weaker reporter binding; conditions: FMN input: 0 or 200 uM; Eterna round: R93 (includes R88 designs)
Outline: (§1)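 Designed RNA switches were transcribed on-chip from Illumina sequencing clusters and titrated with SNAP-549-labelled MS2 coat protein in twofold steps from 0.7 or 1.5 nM up to 3 µM. Each step lasted 0.8–1.5 h at first and 10–20 min by the end, in 100 mM Tris-HCl pH 7.5, 80 mM KCl and 4 mM MgCl2, without or with constant ligand. Apparent KD is the median, for each design, of fits to normalised cluster binding curves.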

[2] = test system: MS2 coat protein; experiment: apparent KD of MS2 coat protein, switch OFF state (with FMN for OFF switches, without FMN for ON switches); designed switch direction (-1 OFF switch, 1 ON switch): -1; higher = weaker reporter binding; conditions: FMN input: 0 or 200 uM; Eterna round: R93 (includes R88 designs)
Outline: as §1

Row | Sequence | apparent KD of MS2 coat protein [1] [nM] | apparent KD of MS2 coat protein [2] [nM]
1 | AAUUCACAUGAGGAUCACCCAUGUAAGGAUAUCGAAAAAAAACUAAACAAAAAACAAACGAGAAGGUACAAAAA [Exclusion 1 design 5] | 25.5 | 31.6
2 | AAUUCACAUGAGGAUCACCCAUGUAAGGAUAUCGAAAUAAAACUAAUCAAUAAACAAACGAGAAGGUACAAAAA [Exclusion 1 design 8] | 20.4 | 24
3 | ACAAGCCUAGGAUAUACAUGAGGAUCACCCAUGUGAAAGAACCGGUGACUCCUGGAAAGUAGAAGGAGGAAUCG [Biatla] | 44.7 | 40.1
4 | ACAAGGUCAGGAUAUACAUGAGGAUCACCCAUGUGAGAAUUCGAUUAAAACACACAAAGUAGAAGGGACCAGGA [Ruby 83] | 22 | 33.6
5 | ACCAAUGGAGGAUAUACAUGAGGAUCACCCAUGUUUAUCCUACAUAGGUGAAAAACAUGUAGAAGGCCAUAGGA [EX3 237: Super Stable 37] | 11.1 | 12
6 | ACCAAUGGAGGAUAUACAUGAGGAUCACCCAUGUUUAUCCUACAUAGGUGAAAAAUAUGUAGAAGGCCAUAGGA [EX3 238: Super Stable 38] | 13.2 | 10.8
7 | ACCUGACAUGAGGAUCACCCAUGUCAGGAUAUGACUUCGAAAAAAAAAAAAAACGAUGUCAGAAGGGACAUGGG [Design 70: Sub-opt P] | 15.4 | 15.9
8 | ACUUAUGAAGGAUAUACUAACAACAUACACUCAACACACACACAUGAGGAUCACCCAUGUAGAAGGUCAAACAU [JR_Exc002_Sub1205] | 19.6 | 18.2
9 | AGAAAACAUGAGGAUCACCCAUGUCAGGAUAUCAAAAAGAAAAGAAAAGAAAGAAGAAUGAGAAGGGACAAGAA [Khasekhem(wy)] | 27.5 | 32.1
10 | AGAAAACAUGAGGAUCACCCAUGUGAGGAUAUGCGAAUAAAGAAACAAAUAAAAGAAAGCAGAAGGCACAACAA [Ex 1 Tesla 4] | 31.9 | 36
11 | AGAAAGCUAGGAUAUACCUGGAGGGUUCGAAAUGAAAUAAAACAUGAGGAUCACCCAUGUAGAAGGAGCCCGAG [Veislela] | 42.6 | 28
12 | AGAAAGUCAGGAUAUACAGAAAAAAAAACGAAAAAAAAUCUGUAGAAGGGACAUGAGGAUCACCCAUGUAAAGA [Mat - Exclusion 4 - Mayanna - D124] | 66.1 | 36.8
13 | AGAAAGUCAGGAUAUAUGCGAAAAAUAAAAAAAAUAAAAACAUAGAAGGGACAUGAGGAUCACCCAUGUUAAGA [Mat - Exclusion 4 - Mayanna - D136] | 50 | 32
14 | AGAAAGUCAGGAUAUGCAGAUAAAAAAACGAAAAAAAAUCUGCAGAAGGGACAUGAGGAUCACCCAUGUAAAGA [Mat - Exclusion 4 - Mayanna - D111] | 52.3 | 40.2
15 | AGAAAGUCAGGAUAUGCGAAGGCGUCUGAUAGACGAGGCUAGCAGAAGGGACAUGAGGAUCACCCAUGUGAAGA [Mat - Exclusion 4 - Eli mod - D85] | 55 | 86.4
16 | AGAAAGUGAGGAUAUCGAAGACUGUCGAAAAGACAGUCGAACGAGAAGGCACAUGAGGAUCACCCAUGUGAGGG [Mat - Exaclusion 4 - Eli mod - D67] | 76.3 | 58.2
17 | AGAAAGUGAGGAUAUUCGGAUAGGAAAACGAAAACCUAUCCGAAGAAGGCACAUGAGGAUCACCCAUGUAAAAA [Mat - Exaclusion 4 - Eli mod - D38] | 33.2 | 37.5
